These results are taken from US20190233808.

Substitutions are numbered along the chain they refer to. Names may count otherwise.

The target of data set [1] is FITC-labeled bovine type-1 collagen (Chondrex, Cat# 4001), P02453.
Data set [2] concerns the target T1, synthetic MMP1 substrate MCA-Lys-Pro-Leu-Gly-Leu-DPA-Ala-Arg-NH2 (R&D Systems, Cat# ES010).
T1 chain: KPLGLXAR

Sequence of FITC-labeled bovine type-1 collagen (Chondrex, Cat# 4001), P02453 (P02453 162-1217, chain 1 of 2): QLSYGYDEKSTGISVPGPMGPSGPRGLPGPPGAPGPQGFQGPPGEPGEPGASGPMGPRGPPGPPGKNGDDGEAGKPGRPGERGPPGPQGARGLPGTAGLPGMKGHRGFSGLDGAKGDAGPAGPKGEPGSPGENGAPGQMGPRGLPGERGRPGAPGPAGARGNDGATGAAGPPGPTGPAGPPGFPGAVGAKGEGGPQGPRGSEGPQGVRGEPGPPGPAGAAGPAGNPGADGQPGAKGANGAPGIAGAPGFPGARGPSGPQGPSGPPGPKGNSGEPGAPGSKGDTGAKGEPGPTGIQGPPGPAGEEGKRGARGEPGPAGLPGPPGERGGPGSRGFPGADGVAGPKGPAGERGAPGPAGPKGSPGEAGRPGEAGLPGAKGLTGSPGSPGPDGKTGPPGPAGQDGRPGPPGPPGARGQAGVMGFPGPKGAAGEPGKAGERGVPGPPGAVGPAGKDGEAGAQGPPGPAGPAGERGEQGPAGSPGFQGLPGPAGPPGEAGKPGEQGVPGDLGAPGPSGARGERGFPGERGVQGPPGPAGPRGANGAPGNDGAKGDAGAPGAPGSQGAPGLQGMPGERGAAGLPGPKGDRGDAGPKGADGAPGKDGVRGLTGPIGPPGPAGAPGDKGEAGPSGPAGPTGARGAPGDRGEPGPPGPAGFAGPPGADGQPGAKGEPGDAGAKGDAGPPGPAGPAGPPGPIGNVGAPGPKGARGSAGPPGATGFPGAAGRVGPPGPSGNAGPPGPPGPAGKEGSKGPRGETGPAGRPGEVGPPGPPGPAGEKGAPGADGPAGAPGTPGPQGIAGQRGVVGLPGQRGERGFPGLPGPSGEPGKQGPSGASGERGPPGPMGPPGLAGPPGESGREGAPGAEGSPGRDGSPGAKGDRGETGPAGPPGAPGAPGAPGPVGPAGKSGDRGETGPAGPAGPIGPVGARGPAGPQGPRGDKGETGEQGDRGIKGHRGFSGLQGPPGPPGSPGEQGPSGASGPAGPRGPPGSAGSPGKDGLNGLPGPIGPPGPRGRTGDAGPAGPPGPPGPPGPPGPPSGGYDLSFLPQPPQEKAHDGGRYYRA
Sequence of FITC-labeled bovine type-1 collagen (Chondrex, Cat# 4001), P02453 (P02453 other isoform, or with tags, fused parts or gaps, chain 2 of 2): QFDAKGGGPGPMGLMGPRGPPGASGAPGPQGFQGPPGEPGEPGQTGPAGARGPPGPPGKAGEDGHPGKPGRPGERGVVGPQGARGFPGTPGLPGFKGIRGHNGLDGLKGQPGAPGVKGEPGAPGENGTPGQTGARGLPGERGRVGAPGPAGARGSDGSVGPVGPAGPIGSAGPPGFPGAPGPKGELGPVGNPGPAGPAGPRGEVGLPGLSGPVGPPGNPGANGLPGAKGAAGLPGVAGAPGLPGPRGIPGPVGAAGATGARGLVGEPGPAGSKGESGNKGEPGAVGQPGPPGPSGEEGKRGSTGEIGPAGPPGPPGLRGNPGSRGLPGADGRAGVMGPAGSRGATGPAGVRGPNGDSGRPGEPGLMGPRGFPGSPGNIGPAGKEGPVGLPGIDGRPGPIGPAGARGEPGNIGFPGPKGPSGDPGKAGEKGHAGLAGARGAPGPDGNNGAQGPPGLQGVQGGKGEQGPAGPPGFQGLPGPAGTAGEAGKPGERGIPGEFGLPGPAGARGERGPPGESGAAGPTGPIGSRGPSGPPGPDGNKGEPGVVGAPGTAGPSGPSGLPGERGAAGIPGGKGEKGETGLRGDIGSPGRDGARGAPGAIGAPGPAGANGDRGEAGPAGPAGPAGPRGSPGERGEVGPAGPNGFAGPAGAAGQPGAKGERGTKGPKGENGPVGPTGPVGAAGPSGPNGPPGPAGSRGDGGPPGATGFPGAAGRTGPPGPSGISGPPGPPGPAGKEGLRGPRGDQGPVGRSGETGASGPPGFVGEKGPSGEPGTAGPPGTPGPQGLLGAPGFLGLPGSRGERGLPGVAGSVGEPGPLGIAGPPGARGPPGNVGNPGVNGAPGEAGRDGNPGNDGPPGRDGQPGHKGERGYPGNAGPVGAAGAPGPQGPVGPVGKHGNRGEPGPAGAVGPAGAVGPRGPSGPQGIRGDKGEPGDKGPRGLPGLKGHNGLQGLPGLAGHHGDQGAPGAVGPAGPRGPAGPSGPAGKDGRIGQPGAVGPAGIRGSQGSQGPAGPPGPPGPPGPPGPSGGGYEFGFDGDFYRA

B1: trypsin-activated MMP1 (43 kD active human matrix metalloproteinase-1) (protein)
chain: VLTEGNPRWEQTHLTYRIENYTPDLPRADVDHAIEKAFQLWSNVTPLTFTKVSEGQADIMISFVRGDHRDNSPFDGPGGNLAHAFQPGPGIGGDAHFDEDERWTNNFREYNLHRVAAHELGHSLGLSHSTDIGALMYPSYTFSGDVQLAQDDIDGIQAIYGRSQNPVQPIGPQTPKACDSKLTFDAITTIRGEVMFFKDRFYMRTNPFYPEVELNFISVFWPQLPNGLEAAYEFADRDEVRFFKGNKYWAVQGQNVLHGYPKDIYSSFGFPRTVKHIDAALSEENTGKTYFFVANKYWRYDEYKRSMDPGYPKMIAHDFPGIGHKVDAVFMKDGFFYFFHGTRQYKFDPKTKRILTLQKANSWFNCRKN
Regarding B1, in data set [1], the “collagen cleavage on SDS PAGE” value is “active MMP1 cleaves type-1 collagen into ¾ and ¼ fragments”; the “kcat (weight-based collagen degradation assay)” value was ~19 monomers per MMP1 per hour; the kcat/MMP1/hr using 1 mg/ml concentration (+MMP1 for 1 hr) was 0.5 /MMP1/hr; the kcat/MMP1/hr using 1 mg/ml concentration (+MMP1 for 2 hr) was 0.21 /MMP1/hr. In addition, in data set [1], the kcat/MMP1/hr using 1 mg/ml concentration (+MMP1 for 3 hr) is 0.19 /MMP1/hr, the kcat/MMP1/hr using 1 mg/ml concentration (+MMP1 for 4 hr) is 0.15 /MMP1/hr, the kcat/MMP1/hr using 1 mg/ml concentration (+MMP1 for 5 hr) is 0.14 /MMP1/hr and the kcat/MMP1/hr using 1 mg/ml concentration (+MMP1 for 6 hr) was 0.11 /MMP1/hr. For the same protein, in data set [1], the kcat/MMP1/hr using 1 mg/ml concentration (+MMP1 for 7 hr) was 0.1 /MMP1/hr, the kcat/MMP1/hr using 1 mg/ml concentration (+MMP1 for 8 hr) is 0.1 /MMP1/hr, the kcat/MMP1/hr using 1 mg/ml concentration (+MMP1 for 9 hr) is 0.09 /MMP1/hr and the kcat/MMP1/hr using 1 mg/ml concentration (+MMP1 for 10 hr) was 0.09 /MMP1/hr. Moreover, in data set [1], the kcat/MMP1/hr using 114.2 mg/ml concentration (+MMP1 for 1 hr) is 58 /MMP1/hr, the kcat/MMP1/hr using 114.2 mg/ml concentration (+MMP1 for 2 hr) was 24 /MMP1/hr, the kcat/MMP1/hr using 114.2 mg/ml concentration (+MMP1 for 3 hr) was 22 /MMP1/hr and the kcat/MMP1/hr using 114.2 mg/ml concentration (+MMP1 for 4 hr) was 17 /MMP1/hr. Moreover, in data set [1], the kcat/MMP1/hr using 114.2 mg/ml concentration (+MMP1 for 5 hr) was 16 /MMP1/hr, the kcat/MMP1/hr using 114.2 mg/ml concentration (+MMP1 for 6 hr) was 13 /MMP1/hr, the kcat/MMP1/hr using 114.2 mg/ml concentration (+MMP1 for 7 hr) is 11 /MMP1/hr and the kcat/MMP1/hr using 114.2 mg/ml concentration (+MMP1 for 8 hr) is 11 /MMP1/hr. For the same protein, in data set [1], the kcat/MMP1/hr using 114.2 mg/ml concentration (+MMP1 for 9 hr) was 10 /MMP1/hr and the kcat/MMP1/hr using 114.2 mg/ml concentration (+MMP1 for 10 hr) is 10 /MMP1/hr. Besides, in data set [2], the “reaction rate k (RFU of degraded substrate by 0.05 µg MMP1)” value was “k=0.26±0.02 RFU/min”; the “specific activity (RFU)” value is “k/0.05=5.2 RFU/min/µg”; the “specific activity (fluorogenic peptide substrate, 37° C.)” value is on record as about 999 pmol/min/µg.

B2: catalytically inactive mutant MMP1 (E219Q) (protein)
chain: B1 chain with E119Q
As to B2, in data set [1], the “collagen degradation on SDS PAGE” value is “did not show degradation of type-1 collagen”.
